From patent US20140087995A1 (published 2014)
Numbered stars: 1 amine (or outer) side, 2 acyl side, 3 side chain; on linkers, the order of the positions; unused ones are H or OH. Bridge positions count the residues as written; N and C are the ends. Square brackets hold non-standard residues; d marks the D form. Side chains are listed from the residue outwards. Ends that are not written are not given here. * marks the point of attachment. C20 diacid = O=C(O)CCCCCCCCCCCCCCCCCCC(=O)*; γGlu = O=C(O)[C@H](CCC(=O)[*:2])N[*:1]; AEEA = NCCOCCOCC(=O)O

B1: N^ε1-[(4S)-4-carboxy-4-(19-carboxynonadecanoylamino)butanoyl]-[His14,Arg17,Pro21,Pro27]-h-amylin (peptide)
peptide: K([γGlu-C20 diacid])CNTATCATQRLAHFLRHSSPNFGAIPSSTNVGSNTY-NH2
modifications: disulfide 2-7; N-terminus assumed
SMILES: CC[C@H](C)[C@H](NC(=O)[C@H](C)NC(=O)CNC(=O)[C@H](Cc1ccccc1)NC(=O)[C@H](CC(N)=O)NC(=O)[C@@H]1CCCN1C(=O)[C@H](CO)NC(=O)[C@H](CO)NC(=O)[C@H](Cc1c[nH]cn1)NC(=O)[C@H](CCCNC(=N)N)NC(=O)[C@H](CC(C)C)NC(=O)[C@H](Cc1ccccc1)NC(=O)[C@H](Cc1c[nH]cn1)NC(=O)[C@H](C)NC(=O)[C@H](CC(C)C)NC(=O)[C@H](CCCNC(=N)N)NC(=O)[C@H](CCC(N)=O)NC(=O)[C@@H](NC(=O)[C@H](C)NC(=O)[C@@H]1CSSC[C@H](NC(=O)[C@@H](N)CCCCNC(=O)CC[C@H](NC(=O)CCCCCCCCCCCCCCCCCCC(=O)O)C(=O)O)C(=O)N[C@@H](CC(N)=O)C(=O)N[C@@H]([C@@H](C)O)C(=O)N[C@@H](C)C(=O)N[C@@H]([C@@H](C)O)C(=O)N1)[C@@H](C)O)C(=O)N1CCC[C@H]1C(=O)N[C@@H](CO)C(=O)N[C@@H](CO)C(=O)N[C@H](C(=O)N[C@@H](CC(N)=O)C(=O)N[C@H](C(=O)NCC(=O)N[C@@H](CO)C(=O)N[C@@H](CC(N)=O)C(=O)N[C@H](C(=O)N[C@@H](Cc1ccc(O)cc1)C(N)=O)[C@@H](C)O)C(C)C)[C@@H](C)O
notes: also called compound 70
B2: N^ε1-[2-[2-[2-(19-carboxynonadecanoylamino)ethoxy]ethoxy]acetyl]-[His14,Arg17,Pro21,Pro27]-h-amylin (peptide)
peptide: K([AEEA-C20 diacid])CNTATCATQRLAHFLRHSSPNFGAIPSSTNVGSNTY-NH2
modifications: disulfide 2-7; N-terminus assumed
SMILES: CC[C@H](C)[C@H](NC(=O)[C@H](C)NC(=O)CNC(=O)[C@H](Cc1ccccc1)NC(=O)[C@H](CC(N)=O)NC(=O)[C@@H]1CCCN1C(=O)[C@H](CO)NC(=O)[C@H](CO)NC(=O)[C@H](Cc1c[nH]cn1)NC(=O)[C@H](CCCNC(=N)N)NC(=O)[C@H](CC(C)C)NC(=O)[C@H](Cc1ccccc1)NC(=O)[C@H](Cc1c[nH]cn1)NC(=O)[C@H](C)NC(=O)[C@H](CC(C)C)NC(=O)[C@H](CCCNC(=N)N)NC(=O)[C@H](CCC(N)=O)NC(=O)[C@@H](NC(=O)[C@H](C)NC(=O)[C@@H]1CSSC[C@H](NC(=O)[C@@H](N)CCCCNC(=O)COCCOCCNC(=O)CCCCCCCCCCCCCCCCCCC(=O)O)C(=O)N[C@@H](CC(N)=O)C(=O)N[C@@H]([C@@H](C)O)C(=O)N[C@@H](C)C(=O)N[C@@H]([C@@H](C)O)C(=O)N1)[C@@H](C)O)C(=O)N1CCC[C@H]1C(=O)N[C@@H](CO)C(=O)N[C@@H](CO)C(=O)N[C@H](C(=O)N[C@@H](CC(N)=O)C(=O)N[C@H](C(=O)NCC(=O)N[C@@H](CO)C(=O)N[C@@H](CC(N)=O)C(=O)N[C@H](C(=O)N[C@@H](Cc1ccc(O)cc1)C(N)=O)[C@@H](C)O)C(C)C)[C@@H](C)O
notes: also called compound 90
B3: N^ε1-[(4S)-4-carboxy-4-[[(4S)-4-carboxy-4-(19-carboxynonadecanoylamino)butanoyl]amino]butanoyl]-[His14,Arg17,Pro21,Pro27]-h-amylin (peptide)
peptide: K([γGlu-γGlu-C20 diacid])CNTATCATQRLAHFLRHSSPNFGAIPSSTNVGSNTY-NH2
modifications: disulfide 2-7; N-terminus assumed
SMILES: CC[C@H](C)[C@H](NC(=O)[C@H](C)NC(=O)CNC(=O)[C@H](Cc1ccccc1)NC(=O)[C@H](CC(N)=O)NC(=O)[C@@H]1CCCN1C(=O)[C@H](CO)NC(=O)[C@H](CO)NC(=O)[C@H](Cc1c[nH]cn1)NC(=O)[C@H](CCCNC(=N)N)NC(=O)[C@H](CC(C)C)NC(=O)[C@H](Cc1ccccc1)NC(=O)[C@H](Cc1c[nH]cn1)NC(=O)[C@H](C)NC(=O)[C@H](CC(C)C)NC(=O)[C@H](CCCNC(=N)N)NC(=O)[C@H](CCC(N)=O)NC(=O)[C@@H](NC(=O)[C@H](C)NC(=O)[C@@H]1CSSC[C@H](NC(=O)[C@@H](N)CCCCNC(=O)CC[C@H](NC(=O)CC[C@H](NC(=O)CCCCCCCCCCCCCCCCCCC(=O)O)C(=O)O)C(=O)O)C(=O)N[C@@H](CC(N)=O)C(=O)N[C@@H]([C@@H](C)O)C(=O)N[C@@H](C)C(=O)N[C@@H]([C@@H](C)O)C(=O)N1)[C@@H](C)O)C(=O)N1CCC[C@H]1C(=O)N[C@@H](CO)C(=O)N[C@@H](CO)C(=O)N[C@H](C(=O)N[C@@H](CC(N)=O)C(=O)N[C@H](C(=O)NCC(=O)N[C@@H](CO)C(=O)N[C@@H](CC(N)=O)C(=O)N[C@H](C(=O)N[C@@H](Cc1ccc(O)cc1)C(N)=O)[C@@H](C)O)C(C)C)[C@@H](C)O
notes: also called compound 92
B4: N^ε1-[(4S)-4-carboxy-4-[[(4S)-4-carboxy-4-(19-carboxynonadecanoylamino)butanoyl]amino]butanoyl]-[D-Asp14,Arg17,Pro21,Pro27,Arg35]-h-amylin (peptide)
peptide: K([γGlu-γGlu-C20 diacid])CNTATCATQRLA[dD]FLRHSSPNFGAIPSSTNVGSRTY-NH2
modifications: disulfide 2-7; N-terminus assumed
SMILES: CC[C@H](C)[C@H](NC(=O)[C@H](C)NC(=O)CNC(=O)[C@H](Cc1ccccc1)NC(=O)[C@H](CC(N)=O)NC(=O)[C@@H]1CCCN1C(=O)[C@H](CO)NC(=O)[C@H](CO)NC(=O)[C@H](Cc1c[nH]cn1)NC(=O)[C@H](CCCNC(=N)N)NC(=O)[C@H](CC(C)C)NC(=O)[C@H](Cc1ccccc1)NC(=O)[C@@H](CC(=O)O)NC(=O)[C@H](C)NC(=O)[C@H](CC(C)C)NC(=O)[C@H](CCCNC(=N)N)NC(=O)[C@H](CCC(N)=O)NC(=O)[C@@H](NC(=O)[C@H](C)NC(=O)[C@@H]1CSSC[C@H](NC(=O)[C@@H](N)CCCCNC(=O)CC[C@H](NC(=O)CC[C@H](NC(=O)CCCCCCCCCCCCCCCCCCC(=O)O)C(=O)O)C(=O)O)C(=O)N[C@@H](CC(N)=O)C(=O)N[C@@H]([C@@H](C)O)C(=O)N[C@@H](C)C(=O)N[C@@H]([C@@H](C)O)C(=O)N1)[C@@H](C)O)C(=O)N1CCC[C@H]1C(=O)N[C@@H](CO)C(=O)N[C@@H](CO)C(=O)N[C@H](C(=O)N[C@@H](CC(N)=O)C(=O)N[C@H](C(=O)NCC(=O)N[C@@H](CO)C(=O)N[C@@H](CCCNC(=N)N)C(=O)N[C@H](C(=O)N[C@@H](Cc1ccc(O)cc1)C(N)=O)[C@@H](C)O)C(C)C)[C@@H](C)O

Assays:
[1] = target: T1, human calcitonin receptor (human, UniProt P30988 25-474); assay: SPA competition vs 125I-calcitonin, membranes of BHK cells with human calcitonin receptor (Assay VII)
T1 construct: whole, on cells; Assayed as cell membranes of BHK tk'ts 13 cells stably transfected with the human calcitonin receptor (Assay VII); also called hCTR; hCT
T1 sequence (looked up): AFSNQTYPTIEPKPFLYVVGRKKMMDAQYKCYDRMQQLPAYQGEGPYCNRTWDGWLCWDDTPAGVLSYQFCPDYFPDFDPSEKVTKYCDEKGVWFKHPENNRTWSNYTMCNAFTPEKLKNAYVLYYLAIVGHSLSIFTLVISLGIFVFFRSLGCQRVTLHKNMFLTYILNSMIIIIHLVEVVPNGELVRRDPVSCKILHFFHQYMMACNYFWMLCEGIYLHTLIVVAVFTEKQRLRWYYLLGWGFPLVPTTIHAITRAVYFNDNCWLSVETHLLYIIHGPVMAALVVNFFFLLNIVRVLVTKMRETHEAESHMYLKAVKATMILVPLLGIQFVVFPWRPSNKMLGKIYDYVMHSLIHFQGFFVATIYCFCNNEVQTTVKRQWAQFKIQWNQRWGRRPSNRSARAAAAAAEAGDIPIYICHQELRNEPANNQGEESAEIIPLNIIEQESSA
How it was run: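 BHK hCTR membranes 35 ng/μL + SPA beads 0.05 mg/well; buffer 50 mM Hepes pH 7.4, 1 mM CaCl2, 5 mM MgCl₂, 0.1% OA, 0.02% Tween20. 120 min, 25° C., shaking. Scintillation count; IC50 by one-site binding competition.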

[2] = target: T1, human calcitonin receptor; assay: IC50 at hCTR divided by IC50 at hAmylin-R (SPA competition assays V and VII)
How it was run: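 Membranes (35 ng/μL final) + SPA beads, 50 mM Hepes pH 7.4 buffer with 1 mM CaCl2, 5 mM MgCl₂, 0.1% OA, 0.02% Tween20; 120 min, 25° C, shaking; centrifuged, counted; IC₅₀ by one-site binding competition.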

[3] = target: T2, human amylin receptor (amylin 3(a) receptor: human calcitonin receptor with RAMP-3) (human, UniProt P30988 25-474; O60896 24-148); assay: SPA competition with 125I-rat amylin on membranes of BHK cells with human calcitonin receptor and RAMP-3 (Assay V)
T2 construct: whole, on cells; Assay used cell membranes of the Amylin 3(a)/CRE-luc BHK cells, not intact cells; also called hAmylin-R; hAmylinR
T2 sequence (looked up) 1: T1 sequence (looked up)
T2 sequence (looked up) 2: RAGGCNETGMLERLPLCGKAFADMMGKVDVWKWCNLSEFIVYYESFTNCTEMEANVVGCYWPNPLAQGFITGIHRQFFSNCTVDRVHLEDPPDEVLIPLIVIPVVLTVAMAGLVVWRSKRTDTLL
Experimental: The binding assay was performed using scintillation proximity assay (SPA) beads (RPNQ0001) from PerkinElmer and cell membranes from the Amylin 3(a)/CRE-luc cells (as described in Assay (II)) were used. Membranes were prepared in the following way; the cells were rinsed with PBS and incubated with Versene for approximately 5 min before harvesting. The cells were flushed with PBS and the cell-suspension was centrifuged for 5 min at 1000 rpm. Cells were homogenized (ultrathurrax) in a buffer containing 20 mM Na-HEPES and 10 mM EDTA (pH 7.4) and centrifuged at 20.000 rpm for 15 min. The resulting pellet was resuspended, homogenized and centrifuged (20.000 rpm, 15 min) in a buffer containing 20 mM Na-HEPES and 0.1 mM EDTA (pH 7.4, buffer 2). The resulting pellet was resuspended in buffer 2 and protein concentration was measured (BCA protein Assay, Pierce). The homogenate was kept cold during the whole procedure. The membranes were kept at −80° C. until use. The assay was performed in a 384 well Optiplate (PerkinElmer) in a total volume of 40 ul. Membranes were mixed with SPA beads. Final concentration of membranes 35 ng/μL final and SPA beads was 0.05 mg/well. Test-compounds were dissolved in DMSO and further diluted in assay buffer (50 mM Hepes, pH 7.4, 1 mM CaCl2, 5 mM MgCl₂, 0.1% OA and 0.02% Tween20). […] The final mixture was incubated with shaking at 400 rpm for 120 min at 25° C. prior to centrifugation (1500 rpm, 10 min). Samples were analyzed on TopCounter™ (Packard). The IC₅₀ was calculated using (one site binding competition analysis) GraphPad Prism5 as a measure of receptor affinity.

[4] = target: T3, human calcitonin receptor (human, UniProt P30988 25-474); assay: SPA competition with 125I-calcitonin on membranes of BHK cells with human calcitonin receptor (Assay VII)
T3 construct: whole, on cells; Assay used cell membranes, not intact cells; also called hCTR; hCT
T3 sequence (looked up): T1 sequence (looked up)
Experimental: Membranes were prepared in the following way; the cells were rinsed with PBS and incubated with Versene for approximately 5 min before harvesting. The cells were flushed with PBS and the cell-suspension was centrifuged for 5 min at 1000 rpm. Cells were homogenized (Ultrathurrax) in a buffer containing 20 mM Na-HEPES and 10 mM EDTA (pH 7.4) and centrifuged at 20.000 rpm for 15 min. The resulting pellet was resuspended, homogenized and centrifuged (20.000 rpm, 15 min) in a buffer containing 20 mM Na-HEPES and 0.1 mM EDTA (pH 7.4, buffer 2). The resulting pellet was resuspended in buffer 2 and protein concentration was measured (BCA protein Assay, Pierce). The homogenate was kept cold during the whole procedure. The membranes were kept at −80° C. until use. Assay was performed in a 384 well Optiplate (PerkinElmer) in a total volume of 40 ul. Membranes were mixed with SPA beads. Final concentration of membranes 35 ng/μL final and Final concentration of SPA beads was 0.05 mg/well. Test-compounds were dissolved in DMSO and further diluted in assay buffer (50 mM Hepes, pH 7.4, 1 mM CaCl2, 5 mM MgCl₂, 0.1% OA and 0.02% Tween20). […] The final mixture was incubated for 120 min with shaking at 400 rpm at 25° C. prior to centrifugation (1500 rpm, 10 min). Samples were analyzed on TopCounter™ (Packard). The […] was calculated using (one site binding competition analysis) GraphPad Prism5 as a measure of receptor affinity.

Binder | IC50 [1] [nM] | Ratio hCT/hAmylin binding [2] | IC50 [3] [nM] | IC50 [4] [nM]
B1 | 10.3 | 60.8 |  | 
B2 | 2.57 | 42.2 |  | 
B3 | 26 | 145 |  | 
B4 |  |  | 0.365 | 112
